Assay results from US20200164038A1, “MODIFIED NUCLEOSIDE, NUCLEOTIDE, AND NUCLEIC ACID COMPOSITIONS” (ModernaTX, Inc., priority 2011, published 2020).

B1: G-CSF unmodified: unmodified G-CSF mRNA SEQ ID NO 6, Cap1 (nucleic acid, listed as Homo sapiens)
chain: GGGAAAUAAGAGAGAAAAGAAGAGUAAGAAGAAAUAUAAGAGCCACCAUGGCCGGUCCCGCGACCCAAAGCCCCAUGAAACUUAUGGCCCUGCAGUUGCUGCUUUGGCACUCGGCCCUCUGGACAGUCCAAGAAGCGACUCCUCUCGGACCUGCCUCAUCGUUGCCGCAGUCAUUCCUUUUGAAGUGUCUGGAGCAGGUGCGAAAGAUUCAGGGCGAUGGAGCCGCACUCCAAGAGAAGCUCUGCGCGACAUACAAACUUUGCCAUCCCGAGGAGCUCGUACUGCUCGGGCACAGCUUGGGGAUUCCCUGGGCUCCUCUCUCGUCCUGUCCGUCGCAGGCUUUGCAGUUGGCAGGGUGCCUUUCCCAGCUCCACUCCGGUUUGUUCUUGUAUCAGGGACUGCUGCAAGCCCUUGAGGGAAUCUCGCCAGAAUUGGGCCCGACGCUGGACACGUUGCAGCUCGACGUGGCGGAUUUCGCAACAACCAUCUGGCAGCAGAUGGAGGAACUGGGGAUGGCACCCGCGCUGCAGCCCACGCAGGGGGCAAUGCCGGCCUUUGCGUCCGCGUUUCAGCGCAGGGCGGGUGGAGUCCUCGUAGCGAGCCACCUUCAAUCAUUUUUGGAAGUCUCGUACCGGGUGCUGAGACAUCUUGCGCAGCCGUGAAGCGCUGCCUUCUGCGGGGCUUGCCUUCUGGCCAUGCCCUUCUUCUCUCCCUUGCACCUGUACCUCUUGGUCUUUGAAUAAAGCCUGAGUAGGAAG
modifications: Cap1
B2: Human EPO mmRNA (nucleic acid, listed as Homo sapiens)
sense: GGGAAAUAAGAGAGAAAAGAAGAGUAAGAAGAAAUAUAAGAGCCACCAUGGGAGUGCACGAGUGUCCCGCGUGGUUGUGGUUGCUGCUGUCGCUCUUGAGCCUCCCACUGGGACUGCCUGUGCUGGGGGCACCACCCAGAUUGAUCUGCGACUCACGGGUACUUGAGAGGUACCUUCUUGAAGCCAAAGAAGCCGAAAACAUCACAACCGGAUGCGCCGAGCACUGCUCCCUCAAUGAGAACAUUACUGUACCGGAUACAAAGGUCAAUUUCUAUGCAUGGAAGAGAAUGGAAGUAGGACAGCAGGCCGUCGAAGUGUGGCAGGGGCUCGCGCUUUUGUCGGAGGCGGUGUUGCGGGGUCAGGCCCUCCUCGUCAACUCAUCACAGCCGUGGGAGCCCCUCCAACUUCAUGUCGAUAAAGCGGUGUCGGGGCUCCGCAGCUUGACGACGUUGCUUCGGGCUCUGGGCGCACAAAAGGAGGCUAUUUCGCCGCCUGACGCGGCCUCCGCGGCACCCCUCCGAACGAUCACCGCGGACACGUUUAGGAAGCUUUUUAGAGUGUACAGCAAUUUCCUCCGCGGAAAGCUGAAAUUGUAUACUGGUGAAGCGUGUAGGACAGGGGAUCGCUGAUAAGCUGCCUUCUGCGGGGCUUGCCUUCUGGCCAUGCCCUUCUUCUCUCCCUUGCACCUGUACCUCUUGGUCUUUGAAUAAAGCCUGAGUAGGAAG
modifications: 5' Cap1, polyA tail ~160 nt

Legend:
[1] = Stability of modified RNA on storage (gel electrophoresis); format: physicochemical
Description: Stability experiments were conducted to obtain a better understanding of storage conditions to retain the integrity of modified RNA. […] 40° C. 37° C. 25° C. 4° C. or −20° C. After the mRNA had been stored for 0 hours, 2 hours, 6 hours, 24 hours, 48 hours, 5 days and 14 days, the mRNA was analyzed by gel electrophoresis using a Bio-Rad EXPERION™ system. The modified, unmodified and lipoplexed G-CSF mRNA was also stored in RNASTABLE® (Biomatrica, Inc. San Diego, Calif.) at 40° C. or water at −80° C. or 40° C. for 35 days before being analyzed by gel electrophoresis.
mRNA samples stored at 4° C. 25° C. and 37° C. were stored in 1×TE buffer or the formulation buffer (150 mM sodium chloride, 2 mM calcium chloride, 2 mM phosphate, 0.5 mM EDTA at a pH of 6.5). The mRNA stored at 4° C. was stable to at least 60 days in both the TE and formulation buffer. At 25° C. the mRNA in formulation buffer was stable out to 14 days and the TE buffer was stable out to at least 6 days. Storage of mRNA in the formulation buffer at 37° C. was stable to 6 days compared to the TE buffer which was stable only until 4 days.

[2] = Split dose study IM, serum human EPO, product per unit drug and dose splitting factor; format: in vivo, mice
Description: The dosing vehicle (F. buffer) consisted of 150 mM NaCl, 2 mM CaCl2, 2 mM Na^+-phosphate (1.4 mM monobasic sodium phosphate; 0.6 mM dibasic sodium phosphate), and 0.5 mM EDTA, pH 6.5. The pH was adjusted using sodium hydroxide and the final solution was filter sterilized.
Animals (n=5) were injected IM (intramuscular) for the single unit dose of 100 ug. For multi-dosing, two schedules were used, 3 doses of 100 ug and 6 doses of 100 ug. For the split dosing scheme, two schedules were used, 3 doses at 33.3 ug and 6 doses of 16.5 ug mmRNA. Control dosing involved use of buffer only at 6 doses. […] Blood and muscle tissue were evaluated 13 hrs post injection.
Human EPO protein was measured in mouse serum 13 h post I.M. single, multi- or split dosing of the EPO mmRNA in buffer. Seven groups of mice (n=5 mice per group) were treated and evaluated.
The splitting factor is defined as the product per unit drug divided by the single dose product per unit drug (PUD) For example for treatment group 2 the value 0.28 or product (EPO) per unit drug (mmRNA) is divided by the single dose product per unit drug of 0.14. The result is 2. Likewise, for treatment group 4, the value 1.1 or product (EPO) per unit drug (mmRNA) is divided by the single dose product per unit drug of 0.14. The result is 7.9. Consequently, the dose splitting factor (DSF) may be used as an indicator of the efficacy of a split dose regimen. For any single administration of a total daily dose, the DSF should be equal to 1. Therefore any DSF greater than this value in a split dose regimen is an indication of increased efficacy.

[3] = group 1: 1 × 100 ug, total dose 100 ug
[4] = group 2: 3 × 100 ug, total dose 300 ug
[5] = group 3: 3 × 33.3 ug, total dose 600 ug
[6] = group 4: 3 × 33.3 ug, total dose 100 ug
[7] = group 5: 6 × 16.5 ug, total dose 100 ug

| Molecule | stable out to ([1]; stored at 25° C.) | stable out to ([1]; stored at 37° C.) | stable out to ([1]; stored at 50° C.) | Dose Splitting Factor [2, 3] | Polypeptide per unit drug [2, 3] | Dose Splitting Factor [2, 4] | Polypeptide per unit drug [2, 4] | Dose Splitting Factor [2, 5] | Polypeptide per unit drug [2, 5] | Dose Splitting Factor [2, 6] | Polypeptide per unit drug [2, 6] | Dose Splitting Factor [2, 7] | Polypeptide per unit drug [2, 7] |
| --- | --- | --- | --- | --- | --- | --- | --- | --- | --- | --- | --- | --- | --- |
| B1 | 48 h | 6 h | 2 h | – | – | – | – | – | – | – | – | – | – |
| B2 | – | – | – | 1 | 0.14 pmol/µg | 2 | 0.28 pmol/µg | 3.3 | 0.46 pmol/µg | 7.9 | 1.1 pmol/µg | 9.3 | 1.3 pmol/µg |
